Test results from PMC13379236 (2026).

B1: C-terminal FLAG-tagged WT ZYG11B [human] / Strep-tagged NLRP1, C-terminal fragment generated by 3C cleavage (begins at G131) [human] (parent complex)
chain 1: PEDQAGAAMEEASPYSLLDICLNFLTTHLEKFCSARQDGTLCLQEPGVFPQEVADRLLRTMAFHGLLNDGTVGIFRGNQMRLKRACIRKAKISAVAFRKAFCHHKLVELDATGVNADITITDIISGLGSNKWIQQNLQCLVLNSLTLSLEDPYERCFSRLSGLRALSITNVLFYNEDLAEVASLPRLESLDISNTSITDITALLACKDRLKSLTMHHLKCLKMTTTQILDVVRELKHLNHLDISDDKQFTSDIALRLLEQKDILPNLVSLDVSGRKHVTDKAVEAFIQQRPSMQFVGLLATDAGYSEFLTGEGHLKVSGEANETQIAEALKRYSERAFFVREALFHLFSLTHVMEKTKPEILKLVVTGMRNHPMNLPVQLAASACVFNLTKQDLAAGMPVRLLADVTHLLLKAMEHFPNHQQLQKNCLLSLCSDRILQDVPFNRFEAAKLVMQWLCNHEDQNMQRMAVAIISILAAKLSTEQTAQLGTELFIVRQLLQIVKQKTNQNSVDTTLKFTLSALWNLTDESPTTCRHFIENQGLELFMRVLESFPTESSIQQKVLGLLNNIAEVQELHSELMWKDFIDHISSLLHSVEVEVSYFAAGIIAHLISRGEQAWTLSRSQRNSLLDDLHSAILKWPTPECEMVAYRSFNPFFPLLGCFTTPGVQLWAVWAMQHVCSKNPSRYCSMLIEEGGLQHLYNIKDHEHTDPHVQQIAVAILDSLEKHIVRHGRPPPCKKQPQARLN
chain 2: GSERRVLRQLPDTSGRRWREISASLLYQALPSSPDHESPSQESPNAPTSTAVLGSWGSPPQPSLAPREQEAPGTQWPLDETSGIYYTEIREREREKSEKGRPPWAAVVGTPPQAHTSLQPHHHPWEPSVRESLCSTWPWKNEDFNQKFTQLLLLQRPHPRSQDPLVKRSWPDYVEENRGHLIEIRDLFGPGLDTQEPRIVILQGAAGIGKSTLARQVKEAWGRGQLYGDRFQHVFYFSCRELAQSKVVSLAELIGKDGTATPAPIRQILSRPERLLFILDGVDEPGWVLQEPSSELCLHWSQPQPADALLGSLLGKTILPEASFLITARTTALQNLIPSLEQARWVEVLGFSESSRKEYFYRYFTDERQAIRAFRLVKSNKELWALCLVPWVSWLACTCLMQQMKRKEKLTLTSKTTTTLCLHYLAQALQAQPLGPQLRDLCSLAAEGIWQKKTLFSPDDLRKHGLDGAIISTFLKMGILQEHPIPLSYSFIHLCFQEFFAAMSYVLEDEKGRGKHSNCIIDLEKTLEAYGIHGLFGASTTRFLLGLLSDEGEREMENIFHCRLSQGRNLMQWVPSLQLLLQPHSLESLHCLYETRNKTFLTQVMAHFEEMGMCVETDMELLVCTFCIKFSRHVKKLQLIEGRQHRSTWSPTMVVLFRWVPVTDAYWQILFSVLKVTRNLKELDLSGNSLSHSAVKSLCKTLRRPRCLLETLRLAGCGLTAEDCKDLAFGLRANQTLTELDLSFNVLTDAGAKHLCQRLRQPSCKLQRLQLVSCGLTSDCCQDLASVLSASPSLKELDLQQNNLDDVGVRLLCEGLRHPACKLIRLGLDQTTLSDEMRQELRALEQEKPQLLIFSRRKPSVMTPTEGLDTGEMSNSTSSLKRQRLGSERAASHVAQANLKLLDVSKIFPIAEIAEESSPEVVPVELLCVPSPASQGDLHTKPLGTDDDFWGPTGPVATEVVDKEKNLYRVHFPVAGSYRWPNTGLCFVMREAVTVEIEFCVWDQFLGEINPQHSWMVAGPLLDIKAEPGAVEAVHLPHFVALQGGHVDTSLFQMAHFKEEGMLLEKPARVELHHIVLENPSFSPLGVLLKMIHNALRFIPVTSVVLLYHRVHPEEVTFHLYLIPSDCSIRKAIDDLEMKFQFVRIHKPPPLTPLYMGCRYTVSGSGSGMLEILPKELELCYRSPGEDQLFSEFYVGHLGSGIRLQVKDKKDETLVWEALVKPGDLMPATTLIPPARIAVPSPLDAPQLLHFVDQYREQLIARVTSVEVVLDKLHGQVLSQEQYERVLAENTRPSQMRKLFSLSQSWDRKCKDGLYQALKETHPHLIMELWEKGSKKGLLPLSS

Variants of: B1
Assay: coIP with western blot quantification; HEK293T cells, transfected for 48 h, with 3C protease; read off a plot

Question: Which ratio to parent does the source give for chain 1 W521A here?
Answer: ~0.05

Question: With chain 1 D525A as the variant, how does the ratio to parent read?
Answer: ~0.05

Question: With chain 1 D434K as the variant, how does the ratio to parent read?
Answer: ~0.94

Question: Which ratio to parent does the source give for chain 1 F515A here?
Answer: ~0.85

Question: For chain 1 Y684A, which ratio to parent is on record?
Answer: ~0.51

Question: How did the ratio to parent turn out when chain 1 N566A was run?
Answer: ~0.08

Question: chain 1 R465A was tested. Which ratio to parent did it give?
Answer: ~0.27

Question: For chain 1 E569A, which ratio to parent is on record?
Answer: ~0.05

Question: With chain 1 E643K as the variant, how does the ratio to parent read?
Answer: ~0.5

Question: chain 1 K514E was tested. Which ratio to parent did it give?
Answer: ~1.1
